Where a chain is given by its changes, count along the chain named. Names and notes keep the numbering of the source. Values belong to the molecule of their own block, whether it stands above or below them.
What was measured:
[1] = molecular target: BMP-9 dimer (disulfide-linked BMP-9 growth factor homodimer) (human) (UniProt Q9UK05)
[2] = molecular target: BMP-9 monomer (cysteinylated BMP-9 growth factor) (human) (UniProt Q9UK05)
[3] = molecular target: BMP-10 monomer (human) (UniProt O95393)
[4] = molecular target: BMP-10 dimer (human) (UniProt O95393)
[5] = molecular target: T1, Pro-(X)-BMP-10 S385G, R353K, O95393; test: SDS-PAGE densitometry after IMAC purification; conditions: chain shown with the change
T1 chain: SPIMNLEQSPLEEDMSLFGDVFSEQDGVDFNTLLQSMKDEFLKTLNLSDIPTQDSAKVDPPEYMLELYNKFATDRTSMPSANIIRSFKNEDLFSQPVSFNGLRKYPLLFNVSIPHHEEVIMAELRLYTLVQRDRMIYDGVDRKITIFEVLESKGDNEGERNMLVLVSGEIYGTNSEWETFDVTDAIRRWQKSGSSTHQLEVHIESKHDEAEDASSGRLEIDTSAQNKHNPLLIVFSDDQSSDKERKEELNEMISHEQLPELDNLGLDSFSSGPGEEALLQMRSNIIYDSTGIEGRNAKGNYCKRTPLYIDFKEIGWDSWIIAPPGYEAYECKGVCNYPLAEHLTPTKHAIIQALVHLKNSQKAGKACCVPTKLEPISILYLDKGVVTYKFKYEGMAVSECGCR

[6] = molecular target: the molecule itself; test: non-reducing SDS-PAGE after IMAC, with densitometry; His-tagged pro-proteins purified from expi293 conditioned medium by IMAC, run non-reduced and reduced; shows the disulfide-linked dimer beside the monomer; bands quantified with ImageJ
[7] = molecular target: T2, Pro-(X)-BMP-10 S385G, O95393; test: SDS-PAGE densitometry after IMAC purification; conditions: chain shown with the change
T2 chain: T1 chain with K332R

[8] = molecular target: T3, Pro-(X)-BMP-10 R353K, O95393; test: SDS-PAGE densitometry after IMAC purification; conditions: chain shown with the change
T3 chain: T1 chain with G364S

[9] = molecular target: the molecule itself; test: crystal structure; BMP-10 Crystal Chimera; 25% 1,2-propanediol, 100 mM phosphate pH 6.2, 10% glycerol
[10] = molecular target: the molecule itself; test: crystal structure; purified BMP-9 dimers at acidic pH: wild type 0.3 M sodium citrate pH 3.5; mutants 0.1 M acetic acid pH 4

EC50 of pSMAD1/5/9 (western blot) in serum-starved HUVECs, 45 minutes, dimers 0.001–1.62 ng/mL [1]: 3.3 pM
Molecule: BMP-9 dimer (disulfide-linked BMP-9 growth factor homodimer) (from UniProt Q9UK05 320-429) (ligand)

EC50 of pSMAD1/5/9 (western blot) in serum-starved HUVECs, 45 minutes, monomers 0.01–54 ng/mL [2]: 124 pM
Molecule: BMP-9 monomer (cysteinylated BMP-9 growth factor) (from UniProt Q9UK05 320-429) (ligand)

EC50 of pSMAD1/5/9 (western blot) in serum-starved HUVECs, 45 minutes, monomers 0.01–54 ng/mL [3]: 164 pM
B1: BMP-10 monomer (ligand)
chain: NAKGNYCKRTPLYIDFKEIGWDSWIIAPPGYEAYECRGVCNYPLAEHLTPTKHAIIQALVHLKNSQKASKACCVPTKLEPISILYLDKGVVTYKFKYEGMAVSECGCR
modifications: cysteinylated (+119 Da); the paper takes the site to be the interchain cysteine

EC50 of pSMAD1/5/9 (western blot) in serum-starved HUVECs, 45 minutes, dimers 0.001–1.62 ng/mL [4]: 5.9 pM
B2: BMP-10 dimer (ligand)
chain: B1 chain
modifications: interchain disulfide

other: dimer over monomer ratio [5]: 0.41
B3: Pro-(X)-BMP-10, O95393 S385G; R353K (protein)
chain: T1 chain

B4: Pro-(fr)-BMP-10 (natural protein, human, UniProt O95393 22-424, looked up)
chain: T1 chain with G291A, I292R, E293I, G294R, K332R, G364S
notes: human proBMP10 residues 22-424 with the natural furin site; secreted partially processed; Partly cut by furin into prodomain and growth factor; also called Pro-BMP-10 with unmodified furin processing site; wild-type BMP-10; source: expi293 (suspension HEK293), secreted; purified by IMAC; not shown: 8xHis, N-terminal, kept
binding result [6]: binds

other: dimer over monomer ratio [7]: 0.42
B5: Pro-(X)-BMP-10, O95393 S385G (protein)
chain: T1 chain with K332R

other: dimer over monomer ratio [8]: 0.9
B6: Pro-(X)-BMP-10, O95393 R353K (protein)
chain: T1 chain with G364S

B7: Pro-(fr)-TGF-β2 (natural protein, human, UniProt P61812-1 19-414, looked up)
chain: LSLSTSSTLDMDQFMRKRIEAIRGQILSKLKLTSPPEDYPEPEEVPPEVISIYNSTRDLLQEKASRRAAACERERSDEEYYAKEVYKIDMPPFFPSENAIPPTFYRPYFRIVRFDVSAMEKNASNLVKAEFRVFRLQNPKARVAEQRIELYQILKSKDLTSPTQRYIDSKVVKTRAEGEWLSFDVTDAVHEWLHHKDRNLGFKISLHCPCCTFVPSNNYIIPNKSEELEARFAGIDGTSTYTSGDQKTIKSTRKKNSGKTPHLLLMLLPSYRLESQQTNRRKKRALDAAYCFRNVQDNCCLRPLYIDFKRDLGWKWIHEPKGYNANFCAGACPYLWSSDTQHSRVLSLYNTINPEASASPCCVSQDLEPLTILYYIGKTPKIEQLSNMIVKSCKCS
notes: human proTGFβ2 residues 19-414; Behind the mouse Ig signal peptide and the His tag, no processing site after the tag; Furin processing incomplete; also called Pro-TGF-β2; source: expi293 (suspension HEK293), secreted; purified from conditioned medium by the histidine tag; not shown: 8xHis, N-terminal, kept
binding result [6]: binds

B8: BMP-10 Crystal Chimera (growth factor from Pro9-(X)-BMP-10 Crystal Chimera) (ligand, human)
chain: DDGNYCKRTPLYIDFKEIGWDSWIIAPPGYEAYECRGVCFFPLAEHLTPTKHAIIQTLVHLKNSQKASKACCVPTKLEPISILYLDKGVVTLKYKYEGMAVSECGCR
notes: human proBMP10 residues 320-424 with five residues replaced by BMP-9 crystal contacts; numbers count on the precursor; Expressed behind the BMP-9 prodomain (proBMP9 residues 23-315); also called chimeric BMP-10; source: expi293 (suspension HEK293), expressed as Pro9-(X)-BMP-10 Crystal Chimera; purified
binding result [9]: binds

B9: BMP-9 G389S dimer (ligand, human, UniProt Q9UK05 320-429, looked up)
chain: SSGAGSHCQKTSLRVNFEDIGWDSWIIAPKEYEAYECKGGCFFPLADDVTPTKHAIVQTLVHLKFPTKVSKACCVPTKLSPISVLYKDDMGVPTLKYHYEGMSVAECGCR
modifications: interchain disulfide at Cys-392
notes: human BMP-9 growth factor domain from a mutant of Pro-(X)-BMP-9 (proBMP9 residues 23-429, A321S, RRKR replaced by IEGR); numbers count on the precursor; Rows of m3 with m3 mean the two chains of the dimer; source: expi293 (suspension HEK293), mutant of Pro-(X)-BMP-9; purified dimer
binding result [10]: binds

B10: BMP-9 G389S, K357R dimer (ligand, human, UniProt Q9UK05 320-429, looked up)
chain: B9 chain with K38R
modifications: interchain disulfide at Cys-392
notes: human BMP-9 growth factor domain from a mutant of Pro-(X)-BMP-9 (proBMP9 residues 23-429, A321S, RRKR replaced by IEGR); numbers count on the precursor; Rows of m4 with m4 mean the two chains of the dimer; also called BMP-9 double-mutant; source: expi293 (suspension HEK293), mutant of Pro-(X)-BMP-9; purified dimer
binding result [10]: binds

B11: Pro-(fr)-BMP-9 (natural protein, human, UniProt Q9UK05 23-429, looked up)
chain: KPLQSWGRGSAGGNAHSPLGVPGGGLPEHTFNLKMFLENVKVDFLRSLNLSGVPSQDKTRVEPPQYMIDLYNRYTSDKSTTPASNIVRSFSMEDAISITATEDFPFQKHILLFNISIPRHEQITRAELRLYVSCQNHVDPSHDLKGSVVIYDVLDGTDAWDSATETKTFLVSQDIQDEGWETLEVSSAVKRWVRSDSTKSKNKLEVTVESHRKGCDTLDISVPPGSRNLPFFVVFSNDHSSGTKETRLELREMISHEQESVLKKLSKDGSTEAGESSHEEDTDGHVAAGSTLARRKRSSGAGSHCQKTSLRVNFEDIGWDSWIIAPKEYEAYECKGGCFFPLADDVTPTKHAIVQTLVHLKFPTKVGKACCVPTKLSPISVLYKDDMGVPTLKYHYEGMSVAECGCR
notes: human proBMP9 residues 23-429 with the natural furin site; secreted partially processed; Partly cut by furin into prodomain and growth factor (12 and 24 kDa forms on the gel); also called Pro-BMP-9 with unmodified furin processing site; wild-type BMP-9; source: expi293 (suspension HEK293), secreted; purified by IMAC; not shown: 8xHis, N-terminal, kept
binding result [6]: binds

B12: Pro-(X)-BMP-9 K357R (natural protein, human, UniProt Q9UK05 23-429, looked up)
chain: B11 chain with R294I, R295E, K296G, K335R
notes: also called K357R BMP-9; source: expi293 (suspension HEK293), secreted; purified by IMAC; not shown: 8xHis, N-terminal, kept
binding result [6]: binds

B13: Pro-(X)-BMP-9 G389S (natural protein, human, UniProt Q9UK05 23-429, looked up)
chain: B11 chain with R294I, R295E, K296G, G367S
notes: also called G389S BMP-9; source: expi293 (suspension HEK293), secreted; purified by IMAC; not shown: 8xHis, N-terminal, kept
binding result [6]: binds

B14: Pro-(X)-BMP-9 G389S, K357R (natural protein, human, UniProt Q9UK05 23-429, looked up)
chain: B11 chain with R294I, R295E, K296G, K335R, G367S
notes: also called G389S, K357R BMP-9; BMP-9 double mutant; source: expi293 (suspension HEK293), secreted; purified by IMAC; not shown: 8xHis, N-terminal, kept
binding result [6]: binds

B15: Pro-(X)-BMP-9 (natural protein, human, UniProt Q9UK05 23-429, looked up)
chain: B11 chain with R294I, R295E, K296G
notes: human proBMP9 residues 23-429, furin site RRKR replaced by factor X site IEGR; Secreted unprocessed as a monomer-dimer mixture; also called Pro-BMP-9 with factor-X processing site; Pro-BMP-9 wild-type; source: expi293 (suspension HEK293), secreted; purified from conditioned medium by IMAC; not shown: 8xHis, N-terminal, kept
binding result [6]: binds

B16: Pro-(fr)-Act-A (natural protein, human, UniProt P08476 27-426, looked up)
chain: EGHSAAPDCPSCALAALPKDVPNSQPEMVEAVKKHILNMLHLKKRPDVTQPVPKAALLNAIRKLHVGKVGENGYVEIEDDIGRRAEMNELMEQTSEIITFAESGTARKTLHFEISKEGSDLSVVERAEVWLFLKVPKANRTRTKVTIRLFQQQKHPQGSLDTGEEAEEVGLKGERSELLLSEKVVDARKSTWHVFPVSSSIQRLLDQGKSSLDVRIACEQCQESGASLVLLGKKKKKEEEGEGKKKGGGEGGAGADEEKEQSHRPFLMLQARQSEDHPHRRRRRGLECDGKVNICCKKQFFVSFKDIGWNDWIIAPSGYHANYCEGECPSHIAGTSGSSLSFHSTVINHYRMRGHSPFANLKSCCVPTKLRPMSMLYYDDGQNIIKKDIQNMIVEECGCS
notes: human proINHBA residues 27-426; The results call it N-terminally histidine-tagged and purified by that tag; the methods say 'with no tag or processing site'; Furin processing incomplete; also called Pro-Activin-A; Pro-Act-A; source: expi293 (suspension HEK293), secreted; purified from conditioned medium by the histidine tag; not shown: His tag, N-terminal, kept
binding result [6]: binds

Source: article doi:10.1101/2024.10.14.618187, “Molecular basis of interchain disulfide-bond formation in BMP-9 and BMP-10” (bioRxiv, 2024)
